Test results: patent publication US20190225670A1, “COMPOUNDS AND METHODS FOR ACTIVATING TIE2 SIGNALING” (ASCLEPIX THERAPEUTICS, LLC, priority 2016, published 2019)

Legend:
[1] = Self-assembly of peptide in media; assay type: physicochemical; details: cell culture media
Erk1/2 = experiment: Western blot of phospho-Erk1/2 in MEC lysates treated with Ang2 and AXT107; assay type: cell-based, human; details: AXT107 and Ang2, all tested conditions
Protocol: (§1) For Ang1/2 signaling investigations, cell culture dishes (10 cm diameter) were coated with 5 μg/ml fibronectin (FN1; Sigma-Aldrich, St. Louis, Mo.) for two hours at 37° C. The FN1 solution was then removed by aspiration and 5×10^6 microvascular endothelial cells (MECs; Lonza, Walkersville, Md.) were plated in EGM-2MV media (Lonza) and cultured for forty-eight hours at 37° C. The cells were then serum starved for sixteen hours in serum-free EGM-2 base media (Lonza). AXT107 (0-100 μM, as indicated) was subsequently added to each culture and incubated for seventy-five minutes at 37° C. The cultures were then treated with 1 mM sodium vanadate (New England Biolabs, Ipswich, Mass.) for fifteen minutes to enhance the phospho-Tie2 signal followed by stimulation with 200 ng/ml angiopoietin (R&D Systems, Minneapolis, Minn.) for an additional fifteen minutes. […] Specific proteins were identified by Western blot, using the following primary antibodies: Cell Signaling—phospho-Tie2 (Y992) (Cat#: 4221), Tie2 (Cat#: 7403), phospho-Stat3 (Y705) (Cat#: 4113), Stat3 (Cat#: 4904), phospho-Akt (S473) (Cat#: 4058), Akt (Cat#: 9272), phospho-p44/42 MAPK (T202/Y204) (Cat#: 4370), p44/42 MAPK (Cat#: 4695); BD Transduction Laboratories—β1 integrin (Cat#: 610467); Millipore—α5 integrin (Cat#: AB1928) and detected with HRP-conjugated goat anti-rabbit and sheep anti-mouse secondary antibodies (GE healthcare).

β1 integrin subunit = biological target: T1, β1 integrin subunit (Homo sapiens, UniProt P05556); experiment: Triton X-100 fractionation of MEC lysates, β1 integrin; assay type: cell-based
T1 construct: host or cells: human dermal microvascular endothelial cells (MEC)
Excerpt: Since β1 integrin is the only known β subunit to heterodimerize with the α5 integrin subunit, it unlikely that the as subunit, that was observed here in the insoluble fractions, originated from a heterodimeric integrin pair other than α5β1. Unfortunately, high background impaired the visualization of α5 integrin alone by immunofluorescence. Given the unexpected discovery that AXT107 dissociates the integrin heterodimer, this discovery was confirmed in several independent assays. […] Thus, interactions between Tie2 and heterodimerized α5β1 integrin appear to retain Tie2 at the EC-ECM interface.
The isolation of Triton X-100 soluble and insoluble fractions was performed using modifications to previously-described procedures (see, e.g., Lampugnani et al., J Cell Biol. 1995; 129(1):203-217). FN1-coated six-well plates were seeded with 2.5×10^6 cells and cultured for forty-eight hours, as described above. The cultures were then serum starved for ninety minutes in EBM-2 media, treated with 100 μM AXT107 or DMSO vehicle, and fifteen minutes with 1 mM sodium vanadate. The cells were then stimulated with either 100 ng/ml VEGFA, 400 ng/ml Ang2, or PBS for fifteen minutes. The plates were then transferred to ice and washed twice with cold dPBS containing Ca^2+ and Mg^2+ and twice with EBM-2 media. […] Samples were analyzed by western blot as described above. […]

[2] = system: myosin light chain 2 (MLC2); experiment: Western blot of pMLC2 in MECs treated with Ang2 and AXT107; assay type: cell-based, human; details: AXT107 and 200 ng/ml Ang2
Protocol: Phosphorylation of Tie2 is known to stimulate the Rap1-GTPase pathway, leading to a reduction in the phosphorylation of the downstream motor protein myosin light chain 2 (MLC2) associated with actin rearrangement.
as §1, with “C.” for “C. The cultures were then treated with 1 mM sodium vanadate (New England Biolabs, Ipswich, Mass.) for fifteen minutes to enhance the phospho-Tie2 signal followed by stimulation with 200 ng/ml angiopoietin (R&D Systems, Minneapolis, Minn.) for an additional fifteen minutes.”

T1 sequence (P05556 21-798): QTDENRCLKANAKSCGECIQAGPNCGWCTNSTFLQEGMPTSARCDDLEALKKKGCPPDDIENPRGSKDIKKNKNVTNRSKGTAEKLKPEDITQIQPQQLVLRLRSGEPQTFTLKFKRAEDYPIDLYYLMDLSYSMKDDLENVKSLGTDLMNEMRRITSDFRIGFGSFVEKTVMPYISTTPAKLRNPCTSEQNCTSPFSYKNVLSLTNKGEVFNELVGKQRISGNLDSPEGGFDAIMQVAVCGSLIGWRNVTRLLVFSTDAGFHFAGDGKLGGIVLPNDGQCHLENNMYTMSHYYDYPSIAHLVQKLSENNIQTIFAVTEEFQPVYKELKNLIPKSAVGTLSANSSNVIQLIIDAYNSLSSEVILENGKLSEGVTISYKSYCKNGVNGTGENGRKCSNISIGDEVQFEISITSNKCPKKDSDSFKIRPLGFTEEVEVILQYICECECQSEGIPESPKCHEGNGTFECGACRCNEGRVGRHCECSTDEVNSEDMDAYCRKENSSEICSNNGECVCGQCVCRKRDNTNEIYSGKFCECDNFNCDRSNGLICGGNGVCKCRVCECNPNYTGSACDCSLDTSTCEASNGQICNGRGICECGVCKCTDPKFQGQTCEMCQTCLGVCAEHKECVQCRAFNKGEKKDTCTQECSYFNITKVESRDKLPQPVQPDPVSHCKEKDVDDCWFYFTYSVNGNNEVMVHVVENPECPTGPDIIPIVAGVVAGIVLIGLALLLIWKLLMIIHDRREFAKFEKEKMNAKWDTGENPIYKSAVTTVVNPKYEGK

With LRRFSTAPFAFIDINDVINF [AXT107] the “self-assembly when added to media” value [1] was “self-assemble into peptide complexes”, the Erk1/2 phosphorylation (Erk1/2) was “remained constant” and the “β1 integrin subunit in insoluble fraction” value (β1 integrin subunit; 100 μM AXT107, long exposure times, high antibody concentrations) was “never observed in the insoluble fraction”. The “interactions of immunoprecipitated α5 integrin with β1” value (β1 integrin subunit; Triton X-100 fractionated lysates after AXT107 treatment, data not shown) was “only found in the soluble fractions” and the “phosphorylation of MLC2” value [2] was “reduced in a dose-dependent manner”.
